Assay results: patent US20250304650A1
“And” between values parts separate entries of the source, which are not always exact repeats. Equal entries are not always repeated.

Experiments:
[1] = molecular target: feline FcRn (IgG receptor FcRn large subunit p51 with feline beta-2-microglobulin) (feline); experiment: SPR Biacore 8K, Fc captured by SASA tag on BSA, pH 6.0
[2] = molecular target: feline FcRn (FCN-F82W3, Acrobiosystems) (feline); experiment: SPR Carterra, IgG coupled, pH 6.0
[3] = molecular target: feline FcRn (IgG receptor FcRn large subunit p51 with feline beta-2-microglobulin) (feline); experiment: SPR Biacore 8K+, IgG on C1 chip, pH 5.9, 1:1 kinetic fit

Row | Binder | Kd [1] | koff [1] | kon [1] | Kd [2] | koff [2] | kon [2] | Kd [3]
1 | feline IgG1a Fc variant S252F (CH2-CH3) with SASA tag (Fc fusion, part only; not given: SASA tag, not shown: another chain or arm of the molecule; small tags and cut ends) Fc: PPEMLGGPSIFIFPPKPKDTLFISRTPEVTCLVVDLGPDDSDVQITWFVDNTQVYTAKTSPREEQFNSTYRVVSVLPILHQDWLKGKEFKCKVNSKSLPSPIERTISKAKGQPHEPQVYVLPPAQEELSRNKVSVTCLIKSFHPPDIAVEWEITGQPEPENNYRTTPPQLDSDGTYFVYSKLSVDRSHWQRGNTYTCSVSHEALHSHHTQKSLTQSPGK | 470 nM and 492 nM | 0.0957 s⁻¹ and 0.101 s⁻¹ | 203000 M⁻¹ s⁻¹ and 205000 M⁻¹ s⁻¹ |  |  |  | 
2 | anti-NGF feline IgG1a, Fc variant S252Y, Q311L (antibody, part only; not given: anti-NGF variable domains, not shown: another chain or arm of the molecule; small tags and cut ends) Fc: PPEMLGGPSIFIFPPKPKDTLYISRTPEVTCLVVDLGPDDSDVQITWFVDNTQVYTAKTSPREEQFNSTYRVVSVLPILHLDWLKGKEFKCKVNSKSLPSPIERTISKAKGQPHEPQVYVLPPAQEELSRNKVSVTCLIKSFHPPDIAVEWEITGQPEPENNYRTTPPQLDSDGTYFVYSKLSVDRSHWQRGNTYTCSVSHEALHSHHTQKSLTQSPGK |  |  |  | 7 nM | 0.00516 s⁻¹ | 740000 M⁻¹ s⁻¹ | 
3 | feline IgG1a Fc variant S428M (CH2-CH3) with SASA tag (Fc fusion, part only; not given: SASA tag, not shown: another chain or arm of the molecule; small tags and cut ends) Fc: PPEMLGGPSIFIFPPKPKDTLSISRTPEVTCLVVDLGPDDSDVQITWFVDNTQVYTAKTSPREEQFNSTYRVVSVLPILHQDWLKGKEFKCKVNSKSLPSPIERTISKAKGQPHEPQVYVLPPAQEELSRNKVSVTCLIKSFHPPDIAVEWEITGQPEPENNYRTTPPQLDSDGTYFVYSKLSVDRSHWQRGNTYTCSVMHEALHSHHTQKSLTQSPGK | 603 nM | 0.1 s⁻¹ | 166000 M⁻¹ s⁻¹ |  |  |  | 
4 | feline IgG1a Fc variant S428Y (CH2-CH3) with SASA tag (Fc fusion, part only; not given: SASA tag, not shown: another chain or arm of the molecule; small tags and cut ends) Fc: PPEMLGGPSIFIFPPKPKDTLSISRTPEVTCLVVDLGPDDSDVQITWFVDNTQVYTAKTSPREEQFNSTYRVVSVLPILHQDWLKGKEFKCKVNSKSLPSPIERTISKAKGQPHEPQVYVLPPAQEELSRNKVSVTCLIKSFHPPDIAVEWEITGQPEPENNYRTTPPQLDSDGTYFVYSKLSVDRSHWQRGNTYTCSVYHEALHSHHTQKSLTQSPGK | 528 nM and 565 nM | 0.103 s⁻¹ and 0.105 s⁻¹ | 195000 M⁻¹ s⁻¹ and 187000 M⁻¹ s⁻¹ |  |  |  | 
5 | feline IgG1a Fc variant S428L (CH2-CH3) with SASA tag (Fc fusion, part only; not given: SASA tag, not shown: another chain or arm of the molecule; small tags and cut ends) Fc: PPEMLGGPSIFIFPPKPKDTLSISRTPEVTCLVVDLGPDDSDVQITWFVDNTQVYTAKTSPREEQFNSTYRVVSVLPILHQDWLKGKEFKCKVNSKSLPSPIERTISKAKGQPHEPQVYVLPPAQEELSRNKVSVTCLIKSFHPPDIAVEWEITGQPEPENNYRTTPPQLDSDGTYFVYSKLSVDRSHWQRGNTYTCSVLHEALHSHHTQKSLTQSPGK | 485 nM and 763 nM | 0.0788 s⁻¹ and 0.0803 s⁻¹ | 162000 M⁻¹ s⁻¹ and 105000 M⁻¹ s⁻¹ |  |  |  | 

Other lines, results leading:

Row | Kd [1] | koff [1] | kon [1] | Kd [2] | koff [2] | kon [2] | Kd [3] | Binder
6 | 23.5 nM and 23.3 nM | 0.00538 s⁻¹ and 0.00545 s⁻¹ | 228000 M⁻¹ s⁻¹ and 234000 M⁻¹ s⁻¹ |  |  |  |  | feline IgG1a Fc variant S252W (CH2-CH3) with SASA tag (Fc fusion, part only; not given: SASA tag, not shown: another chain or arm of the molecule; small tags and cut ends) Fc: PPEMLGGPSIFIFPPKPKDTLWISRTPEVTCLVVDLGPDDSDVQITWFVDNTQVYTAKTSPREEQFNSTYRVVSVLPILHQDWLKGKEFKCKVNSKSLPSPIERTISKAKGQPHEPQVYVLPPAQEELSRNKVSVTCLIKSFHPPDIAVEWEITGQPEPENNYRTTPPQLDSDGTYFVYSKLSVDRSHWQRGNTYTCSVSHEALHSHHTQKSLTQSPGK
7 | 103 nM and 102 nM | 0.0265 s⁻¹ and 0.0263 s⁻¹ | 257000 M⁻¹ s⁻¹ and 258000 M⁻¹ s⁻¹ |  |  |  |  | feline IgG1a Fc variant S252Y (CH2-CH3) with SASA tag (Fc fusion, part only; not given: SASA tag, not shown: another chain or arm of the molecule; small tags and cut ends) Fc: PPEMLGGPSIFIFPPKPKDTLYISRTPEVTCLVVDLGPDDSDVQITWFVDNTQVYTAKTSPREEQFNSTYRVVSVLPILHQDWLKGKEFKCKVNSKSLPSPIERTISKAKGQPHEPQVYVLPPAQEELSRNKVSVTCLIKSFHPPDIAVEWEITGQPEPENNYRTTPPQLDSDGTYFVYSKLSVDRSHWQRGNTYTCSVSHEALHSHHTQKSLTQSPGK
8 |  |  |  | 5.2 nM | 0.00629 s⁻¹ | 1.22e+06 M⁻¹ s⁻¹ |  | anti-NGF feline IgG1a, Fc variant S434Y (antibody, part only; not given: Anti-NGF variable domains, not shown: another chain or arm of the molecule; small tags and cut ends) Fc: PPEMLGGPSIFIFPPKPKDTLSISRTPEVTCLVVDLGPDDSDVQITWFVDNTQVYTAKTSPREEQFNSTYRVVSVLPILHQDWLKGKEFKCKVNSKSLPSPIERTISKAKGQPHEPQVYVLPPAQEELSRNKVSVTCLIKSFHPPDIAVEWEITGQPEPENNYRTTPPQLDSDGTYFVYSKLSVDRSHWQRGNTYTCSVSHEALHYHHTQKSLTQSPGK
9 |  |  |  |  |  |  | 4.01 nM | anti-NGF feline IgG1a, Fc variant S252W (antibody, part only; not given: anti-NGF variable domains, light chain, not shown: another chain or arm of the molecule; small tags and cut ends) Fc: PPEMLGGPSIFIFPPKPKDTLWISRTPEVTCLVVDLGPDDSDVQITWFVDNTQVYTAKTSPREEQFNSTYRVVSVLPILHQDWLKGKEFKCKVNSKSLPSPIERTISKAKGQPHEPQVYVLPPAQEELSRNKVSVTCLIKSFHPPDIAVEWEITGQPEPENNYRTTPPQLDSDGTYFVYSKLSVDRSHWQRGNTYTCSVSHEALHSHHTQKSLTQSPGK
